The target of data set [1] is SARS-CoV-2 S2 protein (SARS-CoV-2 (WT), UniProt P0DTC2 686-1213). Put plainly: streptavidin bead fluorescence binding. The conditions noted are these: protein: commercial; tags: His.
For another data set, the target named is SARS-CoV-1 spike protein (SARS-CoV-1, UniProt P59594 14-1195).
The target in the next data set is SARS-CoV-2 S1 protein (SARS-CoV-2, UniProt P0DTC2 14-685).
For data set [2], the target named is SARS-CoV-2 spike protein WT (SARS-CoV-2 (WT), UniProt P0DTC2 14-1213). Put plainly: streptavidin bead fluorescence binding. The conditions noted are these: protein: commercial, tags: His, chain copies: 3.
Data set [3] has as its target SARS-CoV-2 S2 protein (SARS-CoV-2 (WT), UniProt P0DTC2 686-1213). Put plainly: streptavidin bead fluorescence binding. The conditions noted are these: protein: commercial, tags: His.
A further data set has as its target PD-L1 (UniProt Q9NZQ7 19-238). Put plainly: AuNP colorimetric assay; 1.5 M NaCl, 250 nM each; SELEX buffer: PBS, 1 mM MgCl2, 0.01% Tween, pH 7.4, room temperature. The conditions noted are these: protein: commercial; hairpin.

Sequence of PD-L1 (Q9NZQ7 19-238): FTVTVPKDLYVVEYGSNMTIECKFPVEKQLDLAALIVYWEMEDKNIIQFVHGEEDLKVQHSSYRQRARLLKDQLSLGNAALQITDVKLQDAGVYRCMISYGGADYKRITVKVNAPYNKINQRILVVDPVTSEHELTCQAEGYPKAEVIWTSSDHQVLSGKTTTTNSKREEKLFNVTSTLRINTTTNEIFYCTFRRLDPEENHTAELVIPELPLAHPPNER

B1: S2A1C1 (ssDNA)
DNA: CAAGGAGCGACCAGAGGGGCGGTTTATCAACAACTCGCTCTGTACACCACTCTTTG
In the case of B1, the binding result with SARS-CoV-2 S2 protein [1] was “binds”.
In the case of AGGCGGGTTCCTAGACTTGTACTCAGCCT (ssDNA) [S2A2C1], the results for the binding result with SARS-CoV-1 spike protein, in the data set with SARS-CoV-2 S1 protein and with PD-L1 were “binds”, “no binding” and “no binding”, respectively. Also, the dissociation constant Kd in data set [2] (hairpin) was 83.4 ± 8 nM; with SARS-CoV-2 S2 protein [3] (hairpin), 35 ± 4.3 nM.
CGCAGCACCCAAGAACAAGGACTGCTTAGGATTGCGATAGGTTCGG (ssDNA) [S1B6C3] displayed a Kd in data set [2] of 56.4 ± 14.2 nM.

B2: S2A2 (ssDNA)
DNA: CAAGGAGCGACCAGAGGCGGGTTCCTAGACTTGTACTCAGCCTTTACAGCTATGCCCTGGCATCCTTCAGCCC
As for B2, binding with SARS-CoV-2 S2 protein [3] (label: 6-FAM) was characterised by a dissociation constant (Kd) of 44.2 ± 6.6 nM.
Take CAAGGAGCGACCAGAGGCGGGTTCCTAGACTTGTACTCAGCCT (ssDNA) [S2A2C3]: the binding result with SARS-CoV-2 S2 protein [3] (label: 6-FAM) is given as “binds”.

B3: S2A1 (ssDNA)
DNA: CAAGGAGCGACCAGAGGGGCGGTTTATCAACAACTCGCTCTGTACACCACTCTTTGTTGGCATCCTTCAGCCC
As for B3, in the data set with SARS-CoV-2 S2 protein [1], the Kd amounted to 49.7 ± 3.2 nM.

The term Kd denotes the equilibrium constant for the complex coming apart. A lower Kd goes with higher affinity.

For the origin of these results see article PMC9330529.
